Experiment [1] deals with T1, EGFR on SKOV3 and Aspc-1 tumor cells (human, UniProt P00533).
T1 construct: endogenous, on the cell surface; the cell line is named under assay; also called tumor cell EGFR
Put plainly: flow cytometry on Aspc-1 tumor cells, anti-human IgG PE, MFI, curve fit; unit from the concentration axis and paragraph 62; no upper plateau within the range shown [table]. As to the method:
(§1) Two kinds of tumor cells, SKOV3 and Aspc-1, expressing EGFR were respectively plated in 96 well plates, with 3×10⁵ cells per well, and then the tumor cells were incubated with gradient diluted VHH-IgG4 antibody. After incubation on ice for half an hour, anti human IgG PE (Jackson Immuno Research, Code: 109-117-008, Lot:145501) was added for incubation, and then CytoFLEX flow cytometry was used for detection. The EC50 of the antibody was calculated by curve fitting.
(In general: Flow cytometry measures light scatter and fluorescence of single cells or particles in a stream.)

Experiment [2] addresses T2, human EGFR.His antigen (Acro, Cat #EGR-H522a) (human, UniProt P00533 25-645).
T2 construct: extracellular domain; Bought protein; also called EGFR his tag protein; full-length EGFR extracellular domain protein; not shown: His tag
The experiment is described as follows: competition ELISA: EGFR his tag protein coated, antibody titrated together with Human EGF-mouse IgG2a Fc, bound EGF detected with HRP anti-mouse IgG, unit taken from the concentration axis (paragraph 62 says nM); OD450 falls only from about 2.4 to about 2.1-2.2 [table]. On the procedure: (§2) Briefly, EGFR his tag protein was diluted with PBS to 2 μg/mL, and 100 μL of the antigen was added to each well of an ELISA plate and coated overnight at 4° C. The next day, the plates were washed twice with PBST (containing 0.5% TWEEN-20), and then blocked with 3% BSA at 37° C. for 1.5 h, followed by two washes with PBST. […] VHH-IgG4 antibodies were diluted to 2000 nM and then serially diluted 4-fold for 8 gradients. […] After washing 3 times, HRP goat anti-mouse IgG (Goat anti-Mouse IgG) (H+L) antibody (Abcam, cat #ab205719) diluted at 1:3000 was added to each well, and the plate was incubated at 37° C. for 40 min. The plates were then washed 3 times with PBST, and 100 μL of TMB substrate was added to each well and allowed to react for 3-5 min. The reaction was stopped by adding 100 μL of 3N hydrochloric acid per well. After stopping the reaction, the optical density at 450/650 nm was measured using a Tecan microplate reader. The dose-response curve was plotted, and the IC50 was calculated using GraphPad Prism 8.0 software.

Experiment [3] deals with T1, EGFR on SKOV3 and Aspc-1 tumor cells. Put plainly: flow cytometry on SKOV3 tumor cells, anti-human IgG PE, MFI, curve fit; unit from the concentration axis and paragraph 62; the curve is barely above Isotype 2: MFI about 1800 at about 250 nM, no plateau [table]. As to the method: as §1
Experiment [4] addresses T2, human EGFR.His antigen (Acro, Cat …). Put plainly: competition ELISA: EGFR his tag protein coated, antibody titrated together with Human EGF-mouse IgG2a Fc, bound EGF detected with HRP anti-mouse IgG, unit taken from the concentration axis (paragraph 62 says nM); the curve does not fall (OD450 about 2.4 to 2.65), no blocking, so the fit is not meaningful [table]. On the procedure: as §2
(In general: An ELISA detects its analyte on a solid surface through an enzyme-linked reagent.)

Experiment [5] has as its target T3, EGFR-D4 (F481-S645, P00533-1 (uniprot)) his tag antigen (human, UniProt P00533 481-645).
T3 construct: range 481-645; also called IV domain protein; EGFR-D4 protein; not shown: His tag
Put plainly: ELISA: EGFR-D4 his tag antigen coated at 0.5 µg/mL, antibody at 2000, 200, 20, 2 nM, HRP goat anti-human IgG Fc, OD450. As to the method:
(2) Protein Binding Epitope Analysis: ELISA was used to determine the binding of VHH-IgG4 antibody to each domain of EGFR extracellular protein. Briefly, EGFR his tag protein, and EGFR-V3-his tag antigen protein were diluted to 1 μg/mL, EGFR-D1D2 (L25-A310, P00533-1 (uniprot)), and EGFR-D4 (F481-S645, P00533-1 (uniprot)) his tag antigen were diluted to 0.5 μg/mL, and each well of an ELISA plate was coated with […] antigen and incubated overnight at 4° C. The next day, the plates were washed twice with PBST (added with 0.5% TWEEN-20), then blocked with 3% BSA at 37° C. for 1.5 h, and then washed twice with PBST. Then, the antibody to be tested was diluted to 50 nM, 5 nM, 0.5 nM, 0.05 nM, and added to the wells coated with EGFR his tag protein or EGFR-V3-his tag antigen at 100 µL/well, respectively. The antibody was diluted to 2000 nM, 200 nM, 20 nM, 2 nM, and added to the wells coated with EGFR his tag protein or EGFR-V3-his tag antigen at 100 µL/well, respectively. The ELISA plates were incubated at 37° C. for 1 h. The plates were then washed three times with PBST, and then 100 μL HRP labeled Goat anti human IgG Fc antibody (1:10000, Bethyl) was added into each well, and incubated at 37° C. for another 40 min. After washing the plates four times with PBST, 100 μL of TMB substrate was added to each well, and the reaction was allowed to proceed for 3-5 min. The reaction was stopped by adding 100 μL of 3N hydrochloric acid per well. After stopping the reaction, the optical density at 450/650 nm was measured using a Tecan microplate reader.

The target in experiment [6] is T1, EGFR on SKOV3 and Aspc-1 tumor cells. The experiment is described as follows: flow cytometry on Aspc-1 tumor cells, anti-human IgG PE, MFI, curve fit; unit from the concentration axis and paragraph 62 [table]. As to the method: as §1
The target in experiment [7] is T2, human EGFR.His antigen (Acro, Cat …). The experiment is described as follows: competition ELISA: EGFR his tag protein coated, antibody titrated together with Human EGF-mouse IgG2a Fc, bound EGF detected with HRP anti-mouse IgG, unit taken from the concentration axis (paragraph 62 says nM); OD450 falls from about 2.4 to a plateau of about 0.4 [table]. On the procedure: as §2

Experiment [8] has the same target. The experiment is described as follows: competition ELISA: EGFR his tag protein coated, antibody titrated together with Human EGF-mouse IgG2a Fc, bound EGF detected with HRP anti-mouse IgG, unit taken from the concentration axis (paragraph 62 says nM); OD450 falls only from about 2.4 to about 2.1 [table]. On the procedure: as §2

B1: E005 VHH-IgG4 antibody (antibody, V domains shown)
VH: QVQLVESGGGLVQPGGSLRLSCEASGFAFSDYTMRWHRQAAGKELELVAYITSAGDIIKYANSVRGRFTISRDNAKNTLYLQMDSLKPEDTAVYRCNALVSASVRASDYWGQGTLVTVSS
notes: VHH fused to IgG4 (VHH-IgG4), expressed in ExpiCHO, protein A purified; not shown: human IgG4 constant part from the pCDNA3.4-IgG4 vector
Regarding B1, in experiment [1], the EC50 was found to be 15 nM. Besides, in experiment [2], the IC50 was determined as 0.033 µg/mL.

B2: E007 VHH-IgG4 antibody (antibody, V domains shown, not shown: a dimerising Fc or GST)
VH: EVQLVESGGGLVQPGGSLRLSCEASGFSFSDHTMRWHRQAAGKNLELVAYITPAGDIIKYADSVQGRFTISRDNAKNMLYLQMDSLRPDDTAVYRCNALVSAAVRASDYWGQGTQVTVSS
B2 gave an EC50 in experiment [1] of 39 nM.

B3: E004 VHH-IgG4 antibody (antibody, V domains shown, not shown: a dimerising Fc or GST)
VH: EVQLVESGGGLAQSGGSLRLACEASGFPFETYAMSWARQTPGNEPEWVAGIFPDGKHTAYAHSVKGRFTISRVNANNTVYLQMDSLKPEDTAVYYCAKDLPFFATPSFYIGYWGQGTLVTVSS
B3 registered an EC50 in experiment [3] of 245 nM. The IC50 in experiment [4] is approximately 22.8 µg/mL.

B4: E008 VHH-IgG4 antibody (antibody, V domains shown)
VH: EVQVVESGGGLVQSGGSLTLSCTSSGLPLLDYAIGWFRQAPGKEREAVSAISISEGSTYYTDSVRGRFTISRDNNKNKVYLRMDNLKPEDTAVYYCAADKTDIGFWLLVGGAGGGEVRYEYWGQGTQVTVSS
notes: as for B1
For B4, the binding result in experiment [5] was “no binding (tested: 2000 nM)”. The same molecule came in with an EC50 in experiment [6] of 1.5 nM. Moreover, in experiment [7], the IC50 was 0.056 µg/mL.

B5: E002 VHH-IgG4 antibody (antibody, V domains shown)
VH: QVQLVESGGGLVQAGGSLRLSCAASGFTFSDYAVSWYRQAPGKEREFVARITGTGETSRYEDSVKGRFAISRDNVKNTAYLQMNSLKPEDTAVYYCSIYHPPRDYWGQGTQVTVSS
notes: as for B1
With B5, the binding result in experiment [5] is “no binding (tested: 2000 nM)”. Moreover, the response in experiment [6] was half-maximal at 3.7 nM (EC50). In experiment [8], this molecule returned an IC50 of 0.038 µg/mL.

B6: E003 VHH-IgG4 antibody (antibody, V domains shown, not shown: a dimerising Fc or GST)
VH: QVQLVESGGGLVQPGGSLRLSCVASGGVFSSYAMGWYRQVPGKLRELVATITSGHSTTYADIVRGRFTISRDNTKNTVYLQMNRLEPDDTAVYYCNRSPYTPGNWGQGTLVTVSS
In turn, B6 came in with an EC50 in experiment [1] of 17 nM. In addition, in experiment [8], the IC50 is 0.084 µg/mL.

The term EC50 denotes the concentration that produces a half-maximal response. A higher EC50 goes with lower potency in that assay. The IC50 is the concentration at which inhibition is half-maximal.

(Values after patent publication US20250215092A1 (ZHEJIANG NANOMAB TECHNOLOGY CENTER, published 2025).)
